Test results taken from the Human Domainome abundance scans (Beltran et al. 2025).

B1: POU domain, class 3, transcription factor 3, residues 408 to 463; numbered along this chain, P20264 (parent)
chain: KKRTSIEVSVKGALESHFLKCPKPSAQEITNLADSLQLEKEVVRVWFCNRRQKEKR

Variants of: B1
Experiment: abundance fitness (aPCA) (normalised: wild type 0, dead -1); higher = more abundant; growth selection in yeast, the domain comes from the species named
Details: Homo sapiens

Abundance fitness, by site and new letter:
E28: R -0.456 | S -0.45 | T -0.251 | V -0.442 | W -0.59 | Y -0.048
I29: C -0.574 | D -0.871 | E -0.301 | F -0.832 | G -0.899 | H -0.997 | K -1.07 | L -0.038 | M -0.028 | N -0.982 | P -0.871 | Q -0.822 | R -0.859 | S -0.781 | T -0.849 | V -0.204 | W -0.903 | Y -0.889
T30: A -0.028 | C -0.037 | D 0.048 | E -0.107 | F -0.082 | G -0.072 | H -0.153 | I -0.035 | K -0.044 | M -0.057 | N -0.095 | P -0.847 | Q 0.079 | R -0.17 | S 0.031 | V -0.1 | W -0.327 | Y -0.337
N31: S -0.033 | Y -0.009
L32: A -0.92 | C -1.07 | D -1.03 | E -0.782 | F -0.556 | G -0.88 | H -0.652 | I 0.187 | K -1.06 | N -0.897 | P -0.935 | Q -0.923 | R -0.758 | S -0.95 | T -0.78 | V -0.245 | W -0.967
A33: C -0.515 | D -0.863 | E -0.964 | F -0.941 | G -0.623 | H -0.513 | I -0.864 | K -0.981 | L -0.889 | M -0.823 | N -0.941 | P -0.909 | Q -0.931 | R -0.989 | S -0.052 | T -0.939 | V -0.955 | W -0.878 | Y -0.836
D34: N 0.143
S35: A -0.019 | C -0.079 | D -0.158 | E -0.032 | F -0.177 | G -0.194 | H -0.048 | I -0.122 | K 0.162 | L -0.083 | M -0.133 | N -0.078 | P -0.76 | Q -0.04 | R 0.117 | T -0.07 | W -0.228
L36: A -0.906 | C -0.517 | D -1.02 | F -0.177 | G -0.929 | H -0.434 | I -0.377 | M -0.166 | N -0.869 | P -1.03 | Q -0.812 | R -0.955 | S -0.866 | V -0.522 | W -0.565 | Y -0.313
Q37: A 0.013 | C -0.156 | D 0 | E -0.042 | F -0.3 | G 0.013 | H -0.034 | I -0.453 | L -0.188 | N -0.037 | P -0.671 | R -0.072 | S -0.054 | T -0.257 | W -0.374 | Y -0.342
L38: A -0.693 | C -0.387 | F -0.91 | G -0.943 | H -0.735 | I -0.048 | K -0.895 | M -0.13 | P -0.951 | Q -0.605 | R -0.889 | S -0.699 | T -0.18 | Y -0.982
E39: A -0.153 | C -0.109 | D 0.124 | F -0.948 | G -0.257 | H -0.224 | I -0.919 | K -0.258 | L -0.719 | M -0.428 | N 0.013 | P -0.116 | Q -0.322 | R -0.327 | S -0.055 | T -0.074 | W -0.89 | Y -0.927
K40: C -0.038 | D -0.028 | E 0.077 | G -0.056 | H -0.136
